As a reminder, the koff is the rate constant with which the complex falls apart. Low values mean a long-lived complex, high ones a short-lived complex. As usually defined, the kon is the rate constant with which the complex forms. Low readings indicate slow association, high ones fast association. Broadly, the Kd is the equilibrium constant for the complex coming apart. Higher therefore signals a looser complex.

For two molecules, koff, kon and Kd results are on record in patent US12398194.

Assay [1] addresses CD19 (human) (UniProt P15391). As to the kind of experiment: SPR (Biacore T200), scFv-Fc captured on an anti-IgG CM5 chip, interaction partner injected, 1:1 Langmuir fit. In general terms: Surface plasmon resonance follows binding to a sensor surface in real time, without labels.
For assay [2], the target named is CD22 (human) (UniProt P20273). The assay is described as above.

CD19 (human), sequence (P15391 21-278 limits assumed): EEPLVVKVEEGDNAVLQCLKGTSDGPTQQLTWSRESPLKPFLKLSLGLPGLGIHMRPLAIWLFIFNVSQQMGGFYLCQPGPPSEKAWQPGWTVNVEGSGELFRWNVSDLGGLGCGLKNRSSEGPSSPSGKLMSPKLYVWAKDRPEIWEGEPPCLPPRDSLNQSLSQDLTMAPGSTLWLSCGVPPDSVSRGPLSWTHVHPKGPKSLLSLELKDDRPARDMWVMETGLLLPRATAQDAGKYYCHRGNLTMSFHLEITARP

B1: murine CD19ALAb scFv (scFv, part only; not given: VH-VL linker and Fc, not shown: another chain or arm of the molecule; a dimerising Fc or GST; small tags and cut ends)
scFv: QVQLQQSGAELVRPGSSVKISCKASGYAFSSYWMNWVKQRPGQGLEWIGQIWPGDGDTNYNGKFKGKATLTADESSSTAYMQLSSLASEDSAVYFCARRETTTVGRYYYAMDYWGQGTTVTVSSDIQLTQSPASLAVSLGQRATISCKASQSVDYDGDSYLNWYQQIPGQPPKLLIYDASNLVSGIPPRFSGSGSGTDFTLNIHPVEKVDAATYHCQQSTEDPWTFGGGTKLEIK
For the molecule B1, in assay [1], the koff was found to be 0.000328 s⁻¹ and the kon came to 178000 M⁻¹ s⁻¹.

B2: humanized CD22ALAb scFv (scFv, part only; not given: VH-VL linker and Fc, not shown: another chain or arm of the molecule; a dimerising Fc or GST; small tags and cut ends)
scFv: EVQLVESGAEVKKPGSSVKVSCKASGYTFTNYWINWVRQAPGQGLEWIGNIYPSDSFTNYNQKFKDRATLTVDKSTSTAYLELRNLRSDDTAVYYCTRDTQERSWYFDVWGQGTLVTVSSDIVMTQSPATLSVSPGERATLSCRSSQSLVHSNGNTYLHWYQQKPGQAPRLLIYKVSNRFSGVPARFSGSGSGVEFTLTISSLQSEDFAVYYCSQSTHVPWTFGQGTRLEIK
For B2, in assay [2], the Kd turned out to be 32 nM, the koff worked out at 0.00226 s⁻¹ and the kon was determined as 68300 M⁻¹ s⁻¹.
